Reference: US20130273026A1, “COMPOSITION AND METHOD FOR MODULATING INFLAMMATORY MOLECULES WITH AMYLASE” (INTEGRATIVE ENZYMATICS, INC., priority 2012, published 2013)
Counter-ions that a name gives are not always drawn.

Legend:
[1] = system: BKS.Cg-Dock7m mice; test: Body weight loss in diabetic obese mice; type: in vivo
Procedure: (§1) BKS.Cg-Dock7m mice were treated with control and an Amylase compound according to an embodiment of the present invention. In the absence of treatment, the BKS.Cg-Dock7m mice are homozygous for the diabetes spontaneous mutation (Lepr^db) and become obese at approximately three to four weeks of age. […] At the beginning of the animal trial, the test animals were obese, severely hyperinsulemic and hyperglycemic. After 28 consecutive days of dosing, the animals were euthanized and tissue analyzed. Compounds described herein were tested against the positive control of Metformin hydrochloride (“Metformin”)
(§2) Animals were manually restrained and administered Metformin by oral gavage using a disposable gavage needle. The target dose was 5 mL/kg, and actual dose volumes ranged from 190 to 260 μL/animal.
(§3) Amylase was purchased from Abcam (product ID: ab77861) at a dilution of 340 Units/mL. Each animal was treated with Amylase to achieve a dilution of 80 Units/L of blood. The test compound was diluted in phosphate buffer saline (PBS) and each day the test animals were injected with 300 uL of the Amylase-PBS solution. For every 299.4 uL of PBS, 0.6 uL of Amylase was used to achieve a concentration of 80 Units/Liter assuming a body weight of 45 g. The aliquots were stored at −80 C.
Amylase was purchased from Abcam (product ID: ab77861) at a dilution of 340 Units/mL. Each animal was treated with Amylase to achieve a dilution of 240 Units/L of blood. The test compound was diluted in phosphate buffer saline (PBS) and each day the test animals were injected with 300 uL of the Amylase-PBS solution. For every 298.3 uL of PBS, 1.7 uL of Amylase was used to achieve a concentration of […] assuming a body weight of 45 g. The aliquots were stored at −80 degrees C.
(§4) 1× (used synonymously with TV1) and 3× (used synonymously with TV2) doses of human alpha-Amylase enzyme (referred to herein as Test Compound 1) were determined to be 80 Units/Liter of blood volume and 240 Units/Liter of blood volume respectively. Animals were manually restrained and administered a target volume of 300 μL of phosphate buffered saline (PBS) (vehicle), by IP injection, once per day, on Days 1-28. Actual dose volumes changed throughout the study and ranged from 300 to 310 μL. Endpoints include daily clinical observations and body weights. Creatinine, insulin, Protein Urea/Creatinine levels, clinical pathology and gross pathology at necropsy were also obtained. The mice were euthanized and necropsied on Day 28.
Body weights were measured prior to the study for randomization. Additional weekly body weights were collected throughout the study. We also were interested in weight loss for the animals for various treatment regimens. Referring now to Table 1 weight loss data as a percent weight loss with the reference being the weight before any treatment is illustrated for each test group. […] As with the insulin data, there is a dose dependent trend between 1× and 3×. The higher dose of Test Compound 1 outperforms metformin.

[2] = system: BKS.Cg-Dock7m mice; test: Urine Protein Urea/Creatinine ratio; type: in vivo; conditions: for Nephroprotective effect: from Protein Urea to Creatinine ratio
Procedure: as §1, §4
Referring now to FIG. 11, Protein Urea/Creatinine Levels are measured and shown. Creatinine levels are directly related to muscle mass in mice and so higher Creatinine is correlated with higher muscle mass. A healthy Protein Urea to Creatinine level is 1. Higher levels imply kidney damage. […] Optimal Protein Urea: Creatinine is 1.

[3] = system: BKS.Cg-Dock7m mice; test: Serum insulin ELISA in diabetic obese mice after 28 days of dosing; type: in vivo; conditions: for Serum insulin levels compared to vehicle control: at necropsy after 28 consecutive days, Test Compound 1 at 1× or 3× IP, Metformin oral gavage
Procedure: as §1, §2, §3
Amylase was purchased from Abcam (product ID: ab77861) at a dilution of 340 Units/mL. Each animal was treated with Amylase to achieve a dilution of 240 Units/L of blood. […]
1× (used synonymously with TV1) and 3× (used synonymously with TV2) doses of human alpha-Amylase enzyme (referred to herein as Test Compound 1) were determined to be 80 Units/Liter of blood volume and 240 Units/Liter of blood volume respectively. […]
Referring now to FIG. 9, insulin values were measured in serum from four animals from each treatment group at the time of necropsy following 28 consecutive days of dosing with Control (metformin), Test Compound 1 (SEQ ID NO 1), or vehicle alone. […] The processed plates were read using a Molecular Devices VersaMax plate reader.

[4] = system: Mast cells; test: Histamine ELISA of IgE/anti-IgE-induced mast cell degranulation; type: cell-based; conditions: for Histamine release (ELISA): 1× (100 Units/L) and 10× (1000 Units/L) Amylase, IgE + anti-IgE
Procedure: Referring now to FIG. 1, Mast cells were treated with IgE, anti-IgE and varying doses of alpha-Amylase in a medium that would permit binding. In this experiment, Mast cells were grown to confluence, harvested and resuspended in 8 ml PBS and a 3 ml aliquot was plated in triplicate. 0.29 ml (100 Units) of Amylase was added to 0.7 mL PBS bringing the total volume to 1 mL. 3 μL was used in the 1× Amylase dose and 30 μL was used in the 10× Amylase dose. 1 set of triplicates was incubated with 1× Amylase (100 Units/L) and the second set with 10× Amylase (1000 Units/L). After 10 minutes, 250 μL of IgE was added, and then 200 μL of anti-IgE. The cells were incubated at 37 degrees Celsius during this time. 50 μL was taken at 1 hour, 2.5 hours and 4 hours and subjected to histamine level analysis via ELISA. A control set was co-incubated with PBS.
Anti-IgE when added to IgE-incubated Mast cells causes degranulation. Histamine release occurs during degranulation. Measurements were taken from all three subsets at 1 hour, 2.5 hours and 4 hours and subjected to analysis of histamine levels by ELISA from Oxford Biolabs. FIG. 1 is a graph of the results of an ELISA in which histamine levels are measured. Higher absorbance rates correlate to lower levels of Histamine.
Degranulation based upon the Immunoglobulin-E (IgE)-Anti-IgE reaction is well documented in the literature. Histamine levels were detected by an ELISA kit and served as a marker for degranulation. […] This implies that cellular degranulation was prevented in a time and dose-dependent manner by the addition of Amylase.

[5] = system: BKS.Cg-Dock7m mice; test: Urine creatinine vs percentage of total weight loss; type: in vivo; conditions: 1× dose
Procedure: as §1
as §4, with “Creatinine, insulin, Protein Urea/Creatinine levels, clinical pathology and gross pathology at necropsy were also obtained. The mice were euthanized and necropsied on Day 28.” left out
The source of the weight loss, (whether fat or muscle) is physiologically critical. […] Referring now to FIG. 10, to quantify the source of the weight loss, we examined urine creatinine levels in the test animals. […]

[6] = system: IgE; test: Co-immunoprecipitation of Amylase and IgE; type: binding
Procedure: Referring now to FIG. 3, an immunoblot is shown having samples in lanes 1-8. The samples are prepared as follows. 10 μg of Amylase was mixed with 1 μg of IgE and incubated overnight at 4° C. and then for one hour at 37° C. Anti-Amylase antibody was used for immunoprecipitation. Anti-IgE antibody was used for immunoblotting. BSA was used as a competitive binding control. A sample with no IgE and […] of BSA+10 microgram of Amylase (lane 2) was used as negative control for immunoblotting. (Lanes 3 and 4 represent 0.5 μg BSA, lanes 5 and 6 represent 0.5 μg BSA and lanes 7 and 8 represent 0.05 μg BSA). After immunoprecipitation, pellets were dissolved in 45 microliters of Laemmli sample buffer and 15 microliters were loaded on the gel. 1 microgram of IgE was used as positive control (lane 1).
Referring now to FIG. 2, an immunoblot is shown having samples in lanes 1-8. The samples are prepared as follows.

[7] = Metformin positive control, oral gavage
[8] = 1X dose (80 Units/Liter of blood volume) IP daily
[9] = 3X dose (240 Units/Liter of blood volume) IP daily

## CN(C)C(=N)N=C(N)N [Metformin, Metformin hydrochloride, reference compound]
[1]; [7]
  Body Weight % Lost, % Weight loss n = 4: 7%
  Body Weight % Lost, % Weight loss n = 6: 6.9%
  Body Weight % Lost, % Weight loss raw: 7.4%
[2]
  Nephroprotective effect: nephroprotective
[3]
  Serum insulin levels compared to vehicle control: moderate decreases in serum insulin levels compared to vehicle control animals

B1: Test Compound 1: human alpha-Amylase enzyme (SEQ ID NO 1, pancreatic Amylase alpha 2A), purchased from Abcam (product ID: ab77861) (protein)
chain: QYSPNTQQGRTSIVHLFEWRWVDIALECERYLAPKGFGGVQVSPPNENVAIYNPFRPWWERYQPVSYKLCTRSGNEDEFRNMVTRCNNVGVRIYVDAVINHMCGNAVSAGTSSTCGSYFNPGSRDFPAVPYSGWDFNDGKCKTGSGDIENYNDATQVRDCRLTGLLDLALEKDYVRSKIAEYMNHLIDIGVAGFRLDASKHMWPGDIKAILDKLHNLNSNWFPAGSKPFIYQEVIDLGGEPIKSSDYFGNGRVTEFKYGAKLGTVIRKWNGEKMSYLKNWGEGWGFVPSDRALVFVDNHDNQRGHGAGGASILTFWDARLYKMAVGFMLAHPYGFTRVMSSYRWPRQFQNGNDVNDWVGPPNNNGVIKEVTINPDTTCGNDWVCEHRWRQIRNMVIFRNVVDGQPFTNWYDNGSNQVAFGRGNRGFIVFNNDDWSFSLTLQTGLPAGTYCDVISGDKINGNCTGIKIYVSDDGKAHFSISNSAEDPFIAIHAESKL
modifications: homo sapien
[4]; 1 hour, vs PBS control
  Histamine release (ELISA): the levels of Histamine released in the 1× and 10× doses were the same, with higher release in the negative control
[4]; 2.5 hours
  Histamine release (ELISA): dose dependency with less histamine release compared to 1 hour
[4]; 4 hours
  Histamine release (ELISA): greater histamine release in the 1× and 10× doses
[4]; overall, samples treated with Amylase, 1 to 4 hours, 1× and 10×
  Histamine levels as marker for degranulation: lower in a manner that was both time and dose dependent
[1]; [8]
  Body Weight % Lost, % Weight loss n = 4: 5%
  Body Weight % Lost, % Weight loss n = 6: 5.2%
  Body Weight % Lost, % Weight loss raw: 5.5%
[1]; 1× and 3× doses
  Weight loss compared with metformin: dose-dependency in weight loss with our 1× of Test Compound 1 and 3× of Test Compound 1 doses outperforming metformin
[1]; [9]
  Body Weight % Lost, % Weight loss n = 4: 10%
  Body Weight % Lost, % Weight loss n = 6: 8.3%
  Body Weight % Lost, % Weight loss raw: 7.4%
[5]
  Source of the weight loss (fat or muscle) from urine creatinine: the majority of weight lost is fat content and muscle mass is preserved
[2]
  Nephroprotective effect: nephroprotective
[2]; treatment group 2 (1× dose) vs group 4 (metformin) and group 1 (vehicle)
  Protein Urea to Creatinine ratio in urine: lower Protein Urea to Creatinine ratio compared to urine from animals in treatment group 4 or animals in treatment group 1
[3]; Treatment Group 3: 3× dose (240 Units/liter of blood volume) IP, 28 days
  Change in insulin levels: did exhibit a change in insulin levels
[3]
  Serum insulin levels compared to vehicle control: moderate decreases in serum insulin levels compared to vehicle control animals
[6]; 1 μg IgE + 0.5, 5, 10 μg Amylase, anti-IgE immunoprecipitation, anti-Amylase immunoblot
  Amylase co-immunoprecipitation with IgE: binding of Amylase and IgE was observed to behave in a dose-dependent manner
[6]; 10 μg Amylase + 1 μg IgE, anti-Amylase immunoprecipitation, anti-IgE immunoblot, BSA as competitive binding control
  IgE co-immunoprecipitation with Amylase: IgE immunoprecipitated with Amylase under conditions of increasing concentrations of BSA, demonstrating little non-specific binding
